Results from article PMC5548745, “Agonist-induced dimer dissociation as a macromolecular step in G protein-coupled receptor signaling” (Nature Communications, 2017).

How the values were obtained:
[1] = test system: ERK1/2 phosphorylation in MLE-12 cells; test: P-ERK1/2 immunoblot, WNT-5A stimulated MLE-12 cells; assay type: cell-based, mouse; details: 300 ng ml^−1 WNT-5A
Experimental: MLE-12 or HEK293 cells (ATCC) were plated in a 24- or 48-well plate at a density of 100,000 or 50,000 cells/well, respectively. After 24 h, cells were transfected using Lipofectamine 2000 according to the manufacturer’s instructions. Cells were stimulated (24 h post-transfection) with 300 ng ml^−1 recombinant carrier-free WNT-5A (CF WNT-5A; R&D Systems). Stimulation was stopped by the addition of lysis buffer (1% NP-40, 150 mM NaCl, 50 mM Tris/HCl pH 8). Lysates were sonicated and analyzed by 7.5 or 10% Mini-PROTEAN TGX precast polyacrylamide gels (Bio-Rad) and transferred to PVDF membranes using the Trans-Blot Turbo system (Bio-Rad). […] Proteins were detected with horseradish peroxidase-conjugated secondary antibodies (goat anti-rabbit and goat anti-mouse (Pierce)) and Clarity Western ECL Blotting Substrate (Bio-Rad). […]
Supplementary Figure 6: FZD6 in mouse lung epithelial cells, related to Figure 6. […] The bar graph depicts expression levels of fzd1-10 mRNA in mouse lung epithelial cells (MLE-12) measured by quantitative PCR. […] Primer efficiency has been quantified previously (Halleskog et al., 2012). (b) MLE-12 wt and CRISPR/Cas9 FZD6+/- cells were seeded in a 24-well plate and counted after trypsinization at the indicated time points. Cell proliferation was quantified by cell counting in a Bürker chamber. […]

SNAP-FZD6 = SNAP-FZD6 internalization by confocal microscopy; assay type: cell-based; details: HEK293; WNT-5A 300 ng ml^−1, 15 min
Experimental: SNAP-FZD6 and SNAP-β2-AR were imaged in living cells using a Zeiss LSM710 equipped with a 40×, 1.2 NA C-Apochromat objective. The cell-impermeable SNAP substrate SNAP-Surface 549 (New England Biolabs) was added (1:1000, 15 min), washed twice in BE buffer and imaged using the 561 nm laser line. SNAP-FZD6 and SNAP-β2-AR were stimulated with 300 ng ml^−1 WNT-5A and 10 µM isoproterenol, respectively, and fluorescence was monitored over time.

FZD6–FZD6 dimer = test: dcFRAP of V5-FZD6-mCherry/FZD6-GFP (FZD6 dimerization); assay type: cell-based, human; details: HEK293, after CL
Method in brief: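 Live cells co-expressing V5-FZD6-mCherry and FZD6-GFP, surface V5 tag crosslinked with biotin-anti-V5 plus avidin in BE buffer at RT. Membrane areas photobleached, recovery imaged (488/561 nm) over 100 s; mobile fraction from background/bleach-corrected, pre-bleach-normalized intensity at 85-101 s. Cells with <40% crosslink-induced mobility reduction excluded.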

B1: WNT-5A: recombinant carrier-free WNT-5A (R&D Systems), agonist for FZDs (protein, UniProt P41221 62-380, looked up)
Protein Wnt-5a: IIGAQPLCSQLAGLSQGQKKLCHLYQDHMQYIGEGAKTGIKECQYQFRHRRWNCSTVDNTSVFGRVMQIGSRETAFTYAVSAAGVVNAMSRACREGELSTCGCSRAARPKDLPRDWLWGGCGDNIDYGYRFAKEFVDARERERIHAKGSYESARILMNLHNNEAGRRTVYNLADVACKCHGVSGSCSLKTCWLQLADFRKVGDALKEKYDSAAAMRLNSRGKLVQVNSRFNSPTTQDLVYIDPSPDYCVRNESTGSLGTQGRLCNKTSEGMDGCELMCCGRGYDQFKTVQTERCHCKFHWCCYVKCKKCTEIVDQFVCK
For B1, the “phosphorylation of ERK1/2 on WNT-5A stimulation” value [1] was “time-dependent, partially pertussis toxin-sensitive phosphorylation of ERK1/2”, the “time of maximal increase in P-ERK1/2” value ([1]; 0–20 min, three independent experiments) was 5 min and the “internalization of SNAP-FZD6” value (SNAP-FZD6) was “minimal internalization of SNAP-FZD6 was observed and this was not enhanced by the addition of recombinant WNT-5A”. For the same molecule, the “mobile fraction of FZD6-GFP after WNT-5A, 5 min” value (FZD6–FZD6 dimer; WNT-5A 300 ng ml^−1, 5 min, 12 ROIs) was 71.8 ± 3.2% and the “mobile fraction of FZD6-GFP after WNT-5A, 20 min” value (FZD6–FZD6 dimer; WNT-5A 300 ng ml^−1, 20 min, 15 ROIs) was 61.0 ± 2.2%.
